Source: patent US9822156B2, “Amyloid beta expression constructs and uses therefor” (Whitehead Institute for Biomedical Research, priority 2014, dated 2017)

B1: Aβ42-Arctic-4X: doxycycline-inducible construct, insulin signal peptide and four copies of Aβ42 E22G, SEQ ID NO:37 (protein)
chain: MALWMRLLPLLALLALWGPDPAAADAEFRHDSGYEVHHQKLVFFAGDVGSNKGAIIGLMVGGVVIARRDAEFRHDSGYEVHHQKLVFFAGDVGSNKGAIIGLMVGGVVIAKRDAEFRHDSGYEVHHQKLVFFAGDVGSNKGAIIGLMVGGVVIARRDAEFRHDSGYEVHHQKLVFFAGDVGSNKGAIIGLMVGGVVIA

What was measured:
293T cells = assay: TOXILIGHT cytotoxicity assay in stable doxycycline-inducible poly-Aβ 293T cell lines; format: cell-based; conditions: 72-96 hours following doxycycline induction
From the text: Similar to the poly-Aβ (Aβ40 or Aβ42_1X/4X/6X/8X) expression constructs in yeast (see Example 1), a poly-Aβ toxicity model was developed in mammalian cells. Stable cell lines with chromosomally-integrated tetracycline (doxycycline)-inducible […] transgenes (Aβ42-4X, Aβ42-6X, Aβ40-4X, Aβ40-6X and Aβ42-Arctic-4X) linked to an N-terminal insulin signal peptide were generated (FIGS. 13A-13B). These expression constructs were generated using the pLix402 lentiviral plasmid (FIG. 12). The poly-Aβ constructs were individually transfected into 293T cells along with the lentiviral packaging plasmid psPAX and the viral envelope-expressing plasmid mMD2.G using LIPOFECTAMINE® 2000 (Invitrogen) transfection reagent to generate lentivirus containing the poly-Aβ transgene. The virus was harvested from the supernatant of transfected 293T cells 2 and 3 days post-transfection and subsequently purified and concentrated using the LENTI-X™ Maxi Purification kit (Clontech) according to the manufacturer's instructions.
To generate stable cells harboring the expression transgene for the poly-Aβ constructs, 293T cells were infected using POLYBRENE® infection reagent (Sigma Aldrich), which is used to introduce retroviral vectors into mammalian cells. Infected cells were then selected using puromycin (2-10 μg/ml). Infected cells harboring the transgene survive this selection pressure whereas the control cells without the transgene die in 2-3 days. Aliquots of the selected cells were frozen in liquid nitrogen or maintained and propagated for further applications.
Expression of Aβ peptide from these stable cell lines was measured in the culture supernatant 72-96 hours following doxycycline induction (FIG. 13D). Toxicity was measured 72-96 hours following doxycycline induction using a TOXILIGHT™ cytotoxicity assay (Lonza) as described in Example 2.

[1] = system: Rat embryonic cortical neurons; assay: […] ATP viability assay in neurons infected with lentiviral poly-Aβ constructs; format: cell-based; conditions: three weeks post doxycycline-induction (2 μg/ml)
From the text: Rat embryonic cortical neurons were infected with lentiviral poly-Aβ expression constructs to model poly-Aβ toxicity. Tetracycline (doxycycline)-inducible poly-Aβ (Aβ42-4X, Aβ42-6X, Aβ40-4X, Aβ40-6X, and Aβ42-Arctic-4X) viral constructs described in Example 5 were used to express poly-Aβ constructs in rat cortical neurons. In each expression construct, the poly-Aβ coding sequence is linked to an N-terminal insulin signal peptide. The poly-Aβ expression plasmids were packaged in lentiviral particles, which were generated by 293T cells as described in Example 3.
Rat cortical neurons were enriched from cortices dissected out of embryonic (E18) rat brains and enriched in adherent monolayer culture as described in Example 3. Purified lentiviral preparations at different MOI were used to infect these cortical neurons to express poly-Aβ transgenes. Three days post-infection, expression of poly-Aβ was induced by adding doxycycline (2 μg/ml) to the infected cultures.

| Molecule | Aβ peptide-mediated cytotoxic effect (adenylate kinase release), rank order (293T cells) | cytotoxicity (viability by ATP levels) [1] |
| --- | --- | --- |
| Aβ42-4X: doxycycline-inducible construct, insulin signal peptide and four copies of Aβ42, SEQ ID NO:35 | Aβ42-6X≧Aβ42-Arctic-4X≧Aβ42-4X≧AB40-6X≧Aβ40-4X | profound cytotoxicity compared to Aβ40-4X |
| B1 | Aβ42-6X≧Aβ42-Arctic-4X≧Aβ42-4X≧AB40-6X≧Aβ40-4X | profound cytotoxicity compared to Aβ40-4X |
